Assay results as given in paper PMC4741438, “Targeting the SIN3A-PF1 interaction inhibits epithelial to mesenchymal transition and maintenance of a stem cell phenotype in triple negative breast cancer” (Oncotarget, 2015).

Target: PAH2 domain of mSin3A
Assay: fluorescence polarisation

Chain of PAH2 domain of mSin3A (Q60520 whole entry, the tested form may be a part): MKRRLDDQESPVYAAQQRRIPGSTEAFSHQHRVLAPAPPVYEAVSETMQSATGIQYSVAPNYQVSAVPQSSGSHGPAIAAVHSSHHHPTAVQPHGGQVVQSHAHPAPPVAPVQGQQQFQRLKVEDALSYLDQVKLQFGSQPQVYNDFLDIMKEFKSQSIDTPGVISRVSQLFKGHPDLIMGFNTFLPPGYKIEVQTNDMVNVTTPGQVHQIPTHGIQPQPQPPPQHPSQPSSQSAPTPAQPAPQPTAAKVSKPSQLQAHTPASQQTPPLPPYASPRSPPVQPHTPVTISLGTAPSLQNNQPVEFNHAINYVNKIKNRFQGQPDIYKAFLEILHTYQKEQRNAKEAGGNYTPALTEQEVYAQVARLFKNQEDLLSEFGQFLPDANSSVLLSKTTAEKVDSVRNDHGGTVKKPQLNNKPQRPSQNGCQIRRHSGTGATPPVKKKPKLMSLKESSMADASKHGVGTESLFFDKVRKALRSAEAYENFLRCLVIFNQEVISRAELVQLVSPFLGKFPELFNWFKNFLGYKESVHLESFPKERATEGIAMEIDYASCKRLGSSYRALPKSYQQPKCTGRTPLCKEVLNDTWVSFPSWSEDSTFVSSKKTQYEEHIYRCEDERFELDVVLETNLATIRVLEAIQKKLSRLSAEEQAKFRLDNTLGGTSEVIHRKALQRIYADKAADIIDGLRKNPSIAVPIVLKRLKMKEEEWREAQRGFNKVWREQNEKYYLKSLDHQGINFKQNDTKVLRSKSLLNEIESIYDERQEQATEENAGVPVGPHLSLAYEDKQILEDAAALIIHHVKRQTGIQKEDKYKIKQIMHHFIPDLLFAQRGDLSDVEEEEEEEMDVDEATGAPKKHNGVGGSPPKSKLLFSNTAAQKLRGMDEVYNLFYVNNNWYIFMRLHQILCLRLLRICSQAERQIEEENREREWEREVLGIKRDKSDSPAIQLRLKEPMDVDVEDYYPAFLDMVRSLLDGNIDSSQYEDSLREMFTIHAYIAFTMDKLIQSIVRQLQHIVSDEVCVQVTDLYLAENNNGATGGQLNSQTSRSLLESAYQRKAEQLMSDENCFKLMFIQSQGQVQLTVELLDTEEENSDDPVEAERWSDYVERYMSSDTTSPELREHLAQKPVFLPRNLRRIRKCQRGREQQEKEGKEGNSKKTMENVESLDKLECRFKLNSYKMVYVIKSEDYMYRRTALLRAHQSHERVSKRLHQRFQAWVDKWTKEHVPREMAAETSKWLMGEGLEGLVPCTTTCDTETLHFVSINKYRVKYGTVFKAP

With PF1-SID peptide the IC50 was 15.6 µM.
Tat-SID (MAD-SID peptide) gave an IC50 of 1.26 µM.
